Laboratory results as given in paper doi:10.1101/2023.11.15.567215 (bioRxiv, 2023).

Biological target: the molecule itself
Assay: cross-linking

B1: Mtb LexA (LexA of Mycobacterium tuberculosis), wild type (natural protein)
chain: MNDSNDTSVAGGAAGADSRVLSADSALTERQRTILDVIRASVTSRGYPPSIREIGDAVGLTSTSSVAHQLRTLERKGYLRRDPNRPRAVNVRGADDAALPPVTEVAGSDALPEPTFVPVLGRIAAGGPILAEEAVEDVFPLPRELVGEGTLFLLKVIGDSMVEAAICDGDWVVVRQQNVADNGDIVAAMIDGEATVKTFKRAGGQVWLMPHNPAFDPIPGNDATVLGKVVTVIRKV
stoichiometry N: 2
